From the DeepSol protein solubility set

Assay: soluble on expression in E. coli; label from the status in PepcDB or PDB records

Soluble on expression in E. coli, not soluble:
MSLDKDTVYAVVDIETTGTSVTDGDRIIQIGCVFVQHNQVINHFETDVNPLKEIPAAISRLTGITNKRVRHAPLFDDVAGTLYSLLTNTVFVAHNVNFDLPFINAELERVGYPALPIAAVDTVSLSQILLPTATSFRLRDLSRLFNIEHDNPHSADSDASATAELFIFLFRRLRALPMVTLQRMIDLQADLPLQTTTLFRVAQQLNEEGHHHHHH, MSLDLFIPEVAYINPQALKHPLGNEAYQYLKSMGVPIIESNRVSIDTDSPVKNYVKAKKTILLTVSKQKKLQQCKPSADYQFALSSSCPGHCEYCYLQTTQGEKPYMRLFVNIEEILENIQEYMDGNKPNITTFEAASITDPVGLDHITRALEKCITYFGESSHGRLRLVTKFDHVDPYLKLPHNGHTTFRFTINTQWVIKNFEHHTSSAHERVEGAKKIAHANYPLGFIIAPIMLYDHWEKDYKDLLEELSLALKDYEKPIGFEMIQHRFTSKAKDLILQRFPNTKLNLDEESRKLKWGPYGQFKYVYPTEKSDYMRDYLTGLIKDLFPNGRIEYFTEGHHHHHH, MSLDLPYLSPTPFIKPVPSFKKYSMGFYPIVDSSHWLEMLLPLGIKCIQLRIKEASQERLEEEIKRSVHLANQYNAALFINDHWELAIHYGAAGVHLGQEDLEKADVDRINRSGLFLGISTHCYYEVARAHALNPSYVACGPIYETTSKIMPFQAQGIARLERWRKTLRYPLVAIGGITLKNLSDVLKTKIDGVSVISAITKASAPLVAAKQFLTQMNESHNEGHHHHHH, MSLDNGEAAIIIGEFYKRNDQWKFRALSEGSAYGLSAFGRKIGLEVDDRHPRRPSGGSGGPAGGPRHESATGTAFVVGPAHVMTCAHVIEDMGVFYINSLEGRYKAEAVVIDRRNDIALLRVQGAPPLSAVTFREGQGCEPGDTVAVLGYPLASISGGGLQVTQGGISGLFGLHNDASLFQFTAPIQPGSSGSPLFDNGGAVIGMVTSTVPDGQNMNFAVKSALLMSFLQACRIDEGHHHHHH, MSLEALLSEDVKIIASALKAAIDKDRKSTSKREAETGIRYYNHENDIMNNRIFYVDDEGVLREDKYASNVRIPHGFFPEIVDQKTQYLLSNPVEYETENEELKEYLAEYYNSEFQVVLQELVEGSSQKGFEYVYARTNAEDRLCFQVADSLNVFGVYNEYNELQRICRHYITEIEKDGETVDIHHAEVWTDQNVYFFVAEDNKDYELDEAEPINPRPHVLAVDSDNESLLQRSYGQIPFYRLSNNKQETTDLKSIKALIDDYDLMNCFLSNNLQDFAEAIYVVSGFQGDDLSKLRQNVKSKKVVGTGSDGGLDVKTVTIPTEGRKTKMEIDKENIYKFGMAFDSTQVGDGNITNIVIKARYTLLNMKANKTEARLRALLEWMNKLVIDDINRRYTKAFDPTEVSFTFTREVMVNETDIVNNEKTEAETRKIILESILQVAPRLDDDNVLRLICEQFDLDWEDVKEALEEAEYTQGLTDNTDEEETAVTPNVPTQQMAEGATGSTESQLPGEGHHHHHH

Soluble on expression in E. coli, soluble:
MSLDAVKMVKGKVAEIMQNDRLGGLDVLEAEFSKTWEFKNHNVAVYSIQGRRDHMEDRFEVLTDLANKTHPSIFGIFDGHGGETAAEYVKSRLPEALKQHLQDYEKDKENSVLSYQTILEQQILSIDREMLEKLTVSYDEAGTTCLIALLSDKDLTVANVGDSRGVLCDKDGNAIPLSHDHKPYQLKERKRIKRAGGFISFNGSWRVQGILAMSRSLGDYPLKNLNVVIPDPDILTFDLDKLQPEFMILASDGLWDAFSNEEAVRFIKERLDEPHFGAKSIVLQSFYRGCPDNITVMVVKFRNSSKTEEQEGHHHHHH, MSLDENKPVLVLGATGKQGGSAARYLLERGWTVRAFVRDPGAPKAKELRELGASLHTGDLEDAGSVRAAMKGAYGVFSIQTPMTPAGVEGEERQGKICADAARDLGVQHYVHSSVGGAERPEGVNWRLSKLAIEQRIQENALRFTFLRPSYFMENLNHDMSPLVMEDGVLTFRRGLGPANTLQMISGPDIGYFAADAFDDPDTFGGAKIELAGDELTGEQIAAAFGRHTGLPARFVSVPIPELHRTGFEWQAISYTWLNGIGYHADIPTLRARFPQLLTLDQWLARTGWTPRDPAEGHHHHHH, MSLDGQEAAGILERARASVDPELRRAVDSLPGSMRRIALHHFGWEHADGTPAAGNAGKAIRPALVLAAVRALGGPQSSAVRAAAAVELIHNFTLLHDDVMDRDTTRRHRPTAWTVFGDADAILAGDALQALAHRLLAEDPHPASAAAAARLAACVIELCAGQHADTAMERRGPGEVTLDECLAMAEAKTGALLGCACALGALYAGAEEEDVEALDAFGREAGLAFQLIDDVIGIWGDPSRTGKPAGADLMARKKSLPVVAALAAGTPAAAELAELYAVPHQEGELERTVLAVERAGGRDWAQQQAADRMARAMHELSRAIPDPEAAGGLLALAEFVTRRSNEGHHHHHH, MSLDGTVLLIDYFEYEREKTKIIFDNIGEYDFIEVENLKKFYSIFKDLDSITLIIMDIAFPVEKEGLEVLSAIRNNSRTANTPVIIATKSDNPGYRHAALKFKVSDYILKPYPTKRLENSVRSVLKICQRFRYEFDSAHVISMSIEDYISKEFKVASRAGQSLSVILMAPVGLEKEPSEQSTQISSELQDQIQNLAIEKVKLSLRSTDTAILNANRDILVILPFTNAAGAQKVLQKIQDNVREGLKSLNINYDDYYYAVSVTFPNDGKTFQSLMEKAVKKVEDKIMLEKITSIGVNILDNARNSYKKFNKEGHHHHHH, MSLDHFQIDHIAIAVPSLNTSLPLFEQALQATASHEERLPHHHINAVFINGRGVGYELIEPHPSNVSMQRFLAKQNNRPAFHHIAFSVANIETAIGMLKEKHVRLTSELPLIGSFGRKVAFIHPSSTGGLLVELCEGKTEGHHHHHH, MSLDIADVAKRTGVPASTLRYYEKKGLLKSLAGRGQRRQFAADVADRLALIALGQAAGFSLDEVGAMLVDLQVDRQMLMAKADELDARIKRLQAMSKGLRHAAQCPEKDHLACPKFQQLMKLSAAGALGEKQARTKAFVTDEGHHHHHH, MSLDKMKAITFFDLDGTLLDGTSQITPEITAAVAALKDNQILPLIATGRTLCEIQPIMKASGIDSAIVMNGQFIHYEGKTIYSDEFTTEECVSLHEHVKQRGHELAFYNERRIFCTGHTGTVKQAYDYIHSAVPEIDPTGYENDAVNMMLVLSQHGDDDEYYYERFPELTFYRNGPFSIDIVRKGVSKGSGVKNLFNTLGLNGIPTYAFGDGINDLALFEACDYGIAMGNAREELKEKATFISTKNTENGIVNGLKKFDLLEGHHHHHH, MSLDLRLEELAILGVKLPHDFSPEVQGPLFSSQGLNNISDIAHLSNNENLSYLMTATIENNKVKLDHFVQFLPMIMKFGNSEQRFQLQPKKDTNAPKPTTNKSRGYAKPKRGFGFVDLDDAPSSQPEPSDAEITRNNFDLEQTYWSKNFVNITRVGSRTILEPAIGASLTTYNSGQCYILRLPRKLLISTNTEWPDFISRKIELDGKPLPIPSDNLTEISSREDIISCSYVNDKIDSNWGAVVSLSKSSSENLKVVGIEKQSMVLRESTPMNEGHHHHHH, MSLDNQLRPTLHYQAQNPHRRVLVTGATGYIGGRLITELLAAGFQVRATSRKKTSLQRFDWYEDVEAVEADLTDATELDTLFKDVDVVYYLVHSMGGKNVDFEEQEQRTAENVIQAADQAGIKQIVYLSGLHPRNRKIEELSKHMRSREKVAQILLAGQTPALILRAATIIGSGSASFEIIRHLTERLPRMIAPQWITNQIEPLAIRDVLHYLISAADLKDPVNRSCDIGCGKSYEFADLLRIYADVRGLKRHVNSVPLNLPMDKLSGLWISLVTPVPFQLSFPLAQSMAEDAVTEEHSIKDIISDPPDGFIEYREAVELALAAEFDRGVPTSWDRSWTVQQPWAGQPTDPEWAGKAVYEDVRTEDTDLRAAQVWPIIEGLGGVNGWYSAPLLWRLRGIADRLIGGPGLGGRRDPRHLKLGDRIDWWRVTEIDPPHRLVLTAEMKVDGGAWLILEVADKENGGCTYTQRAIFEPKGEGHHHHHH, MSLDQTVSNNFKMIYIASCGEGINAFHLVESTLVQFPDSDITVVKVPHIRTESQVDHLLDRVKDVESLIAHTIVEPNLRQYLVTKAEEHKIVTIDLMGQVLNKIETFLSIRPLGKPGLYRETHQVDLKQVTAIDFALAHDDGLRPESLDEAEIILVGLSRAGKTPLSMYMGVMGWKVANIPYVPGVPMPQTLDEVDRRRVIALNINIEQLLSHRKMRQESLGTSDMHAYSRRQEVEVEVQTAQKYYITKGFSMIDVSNKPIETSAEEIAEMITRRFKAQAHLKDEGHHHHHH, MSLDRPRCCLRGKECCINRFQQVESRWGYSGTSDRIRFTVNRRISIVGFGLYGSIHGPTDYQVNMQIIEYEKKQTLGQNDTGFSCDGTANTFRVMFKEPIEILPNVCYTACATLKGPDSHYGTKGLKKVVHETPAASKTVFFFFSSPGNNNGTSIEDGQIPEIIFYTEGHHHHHH, MSLDSKLIFFDIDGTIYDHDKNIPESTRKTVAELQRQGHHVFIASGRSPFLVKPILEELGIHSFISYNGQFVVFENQVIYKNPLPENAIRRLLKQADEGKHPVVFMAEDTMKATVADHPHVLEGIGSLKTDYPETDDLFYEGKEIFQLLLFCQDEEEKAYAAFPEFDLVRWHELSTDVLPHGGSKAEGIKKVIERLPFDIGDTYAFGDGLNDLQMIEYVGTGVAMGNAVPELKEIADFVTKPVDEDGIAYAVKELGLLKEGHHHHHH, MSLDSNSQSRSSSASSIGSESETGNAVVVFGYREAITKQILAYFAQFGEILEDLESELGDTETMRTPGYFFQQAPNRRRISREHGRTWTKLTYANHSSYLRALREHGTIYCGAAIGCVPYKHELISELSRDTYNSMNDVKQTNSISTNQLTQHNQSEVPKSNQTFETKPTNETERNQIKTPSAFGSDNKGNGSISSGRTKRRLSIKDGSSLFLSGTDNIFSTLDGQPTKKRMINRDRSLIGKISGWLFGWNDLEGHHHHHH, MSLDTSAPQKYRRILLKVSGEVLMGDTPYGIDTNTVQSVAEDVAEIVKSGVELCLVIGGGNIFRGMAGAAKGMERSSADYMGMLATVMNALAMQDALERIGVETRVQSAIPMATVCEPYIRRRAQRHLEKGRVVIFAAGTGNPFFTTDTAAALRAAEMQCDALFKGTSVDGVYTADPKKDPTAQRYDRLSYMDVLAKDLRVMDASAVALMRDSNIPIVVFSIKGRGNLLTVLRGEGTHTVVAEDEGHHHHHH, MSLEAGAGAPLARYAAWRRAGDFIFLSGIIPVNPLTGTIVNGFQDVPEPVRELLGATGEFSTDAKQGPILAQSWYVLESIRRTVASAGGQMSDVIKLVQYFRNLDHFPYYSRVRKLFYPDQPPVSTVVQVSEMLPDATVLIEVEATVWLPPSFNSEAEGHHHHHH
